Measurements from the RNAGym collection of RNA variant scans (doi:10.1073/pnas.2313332121).
Fewer inactive variants are shown than the library holds.

B1: TPR 5TU (parent)
chain: GGAUCUUCUCGAUCUAACAAAAAAGACAAAUCUGCCACAAAGCUUGAGAGCAUCUUCGGAUGCAGAGGCGGCAGCCUUCGGUGGCGCGAUAGCGCCAACGUUCUCAACUAUGACACGCAAAACGCGUGCUCCGUUGAAUGGAGUUUAUCAUG

Variants of: B1
Assay: polymerase ribozyme fitness, log enrichment relative to wild type (log ratio); higher = more active; in vitro selection for triplet polymerase activity
How it was run: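 Libraries of mutants in each subunit of a heterodimeric triplet polymerase ribozyme were generated by PCR and transcribed. In triplicate, each went through one in vitro selection round: annealing with biotinylated primer, partner subunit and triplets; frozen incubation at −7 °C; gel excision of extended constructs; streptavidin-bead capture; RT-PCR. Fitness, taken from Illumina sequencing of input and output libraries, is the logarithm of a genotype's enrichment over wild-type enrichment, averaged across replicates with inverse-variance weights. The logarithm is base 2, and genotypes needed ≥10 input reads and ≥1 read per output to be kept.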

Variant	polymerase ribozyme fitness (log ratio)
GGAUCUUCUCGAUCUAACAAAAAAGACAAAUCUGCCACAAAGCUUGAGAGCAUUUUCGGAAGCAGAGGCGGCAGCCUUCGGUGUCGCGAUAGCGCCAACGUUCUCAAGUAUGACACGCAAAACGCGUGCUCCGUUGAAUUGAGUUUAUCAUG [C54U U61A G84U C108G G140U]	≤ -4.2
GGAUCUUCUCGAUCUAACAAAAAAGACAAAUCUGCCACAAAGCUUGAGAGCAUUGUCGGAUGCAGAGGCGGCAGCCUUCGGGGGCGCGAUAGCGCCAACGUUCUCAACUAUGACACGCAAAACGCGUGCUCCGUUGAAUGGAGUUUAUCAUG [C54U U55G U82G]	-1.38
GGAUCUUCUCGAUCUAACAAAAAAGACAAAUCUGCCACAAAGCUUGAGAGCAUUUCCGGAUGCAGAGGCGGCAGCCUUCGGUGGCGCGAUAGUGCCAACGUUCUCAACUAUGACACGCAAAACGCGUGCUCCGUUGAAUGGAGUUUAUCUUG [C54U U56C C93U A150U]	0.278
GGAUCUUCUCGAUCUAACAAAAAAGACAAAUCUGCCACAAAGCUUGAGAGCAUUAUCGGAUGCAGAGGCGGCAGCAUUCGGUGGCGCGAUUGCGACAACGUUAUCAACUAUGACACGCAAAACGCGUGCUGCGUUGAUUGGAGUUUAUCAUG [C54U U55A C76A A91U C95A C103A C131G A138U]	≤ -4.2
GGAUCUUCUCGAUCUAACAAAAAAGACAAAUCUGCCACAAAGCUUGAGAGCAUUUACGGAUGCAGAGGCGGCAGCCUUCGGUGGCGCGAUAGCGCCAACGUUCUCAACUAUGACACGUAAAACGCGUGCUCCGUUGAAUGGAGUUUAUCAUG [C54U U56A C118U]	-0.674
GGAUCUUCUCGAUCUAACAAAAAAGACAAAUCUGCCACAAAGCUUGAGAGCAUUUUCGGAUGCAGAGGCGGCAGCCCUCGGUGGCGCAAUAGCGCUAACGUUCUCCACUAUGACACGCAAAACGCGUGCUCCGUUGAAUGGAGUUUAUCAUG [C54U U77C G88A C96U A106C]	≤ -4.2
GGAUCUUCUCGAUCUAACAAAAAAGACAAAUCUGCCACAAAGCUUGAGAGCAUUUCCGGAUGCAGAGGCGGCUGCCUUCGGUGGCGCGAUAGCGCCAACGUUCUCAACUAUGACACGCAAAACGCGUGCUCCGUUGAAUGGAGUUUAUCAUG [C54U U56C A73U]	-1.06
GGAUCUUCUCGAUCUAACAAAAAAGACAAAUCUGCCACAAAGCUUGAGAGCAUUGUCAGAUGCUGAGGCGGCAGCCUUCGGUGGCGCAAUAGCGGCAACGUUCUCAACUAUGACACGCAAAACGCGAGCUCCGUUGAAUGGAGUUUAUCAUG [C54U U55G G58A A64U G88A C95G U127A]	≤ -4.2
GGAUCUUCUCGAUCUAACAAAAAAGACAAAUCUGCCACAAAGCUUGAGAGCAUUGUCGGAUGCAGAGGCGGCAGCCUUCGGUGGCGCGAUAGCGACAACGUUCUCAACUAUGACACGCCAAACGCGGGCUCCGUUGAAUGGCGUUUAUCAUG [C54U U55G C95A A119C U127G A142C]	≤ -4.2
GGAUCUUCUCGAUCUAACAAAAAAGACAAAUCUGCCACAAAGCUUGAGAGCAUUUACGGAUGCAGAGGCGACAGCCUUCGGUGGCGCGAUAGCGCCAACGUUCUCACCUAUGACACGCAAAACGCGUGCUCCGUUGAAUGGAGUUUAUCCUG [C54U U56A G71A A107C A150C]	≤ -4.2
GGAUCUUCUCGAUCUAACAAAAAAGACAAAUCUGCCACAAAGCUUGAGAGCAUUUUCGGAUGCAGAGGCGGCAGCCUUCGGUGGCGCGAUAGCGCCAACGUUCUCAACUAUGACACGCAAAACGCGUGCUCCGUUGAAUGAAGUUUAUCAGG [C54U G141A U151G]	≤ -4.2
GGAUCUUCUCGAUCUAACAAAAAAGACAAAUCUGCCACAAAGCUUGAGAGCAUUCUCGGAUGCAGAGGCGGUAGCCUUCGGUGGCGAGAUAGCGCCAACGUUCUCAACUAUGACACGCAAAACGCGUGCUCCGUUGAAUGGAGUUUAUCAUG [C54U U55C C72U C87A]	≤ -4.2
GGAUCUUCUCGAUCUAACAAAAAAGACAAAUCUGCCACAAAGCUUGAGAGCAUUUCCGGAUGCAGAGGCGGCAGCCUUCGGUGGCGCGAUAGCGCCAACGUUCUCAACUAUGACACGCAAAACGCGUGCUCCGUUGAAUGGAGUUUAUCAUG [C54U U56C]	-0.57
GGAUCUUCUCGAUCUAACAAAAAAGACAAAUCUGCCACAAAGCUUGAGAGCAUUUACGGAUGCAGAGGCGGCAGCCUUCGAUGGCGCGAUAGCGACAACGCUCUCAACUAUGACACGCAAAACGCGUGCUCCGUUGAAUGGAGUUUAUCAUG [C54U U56A G81A C95A U101C]	-1.35
GGAUCUUCUCGAUCUAACAAAAAAGACAAAUCUGCCACAAAGCUUGAGAGCAUUUACGGAUGCAGAGGCGGCAGCCUUCGGUGGCACGAUAGCGCCAACGUACUCAACUAUGACAAGCAAAACGCGUGCUCCGUUGAAUGGAGUUUAUCAUG [C54U U56A G86A U102A C116A]	-2.55
GGAUCUUCUCGAUCUAACAAAAAAGACAAAUCUGCCACAAAGCUUGAGAGCAUUUUCGGAUGCAGAGGCGGCAGCCCUCGGUGACGCGAUAGCGCCAACGUUCUCAACCAUGACACGCAAAACGCGUGCUCCGUUGAAUGGAGUUUAUCAUG [C54U U77C G84A U109C]	≤ -4.2
GGAUCUUCUCGAUCUAACAAAAAAGACAAAUCUGCCACAAAGCUUGAGAGCAUUUUCGGAUGCAGAGGCGGCAGCCUUCGGUGGCGCGAUAGCGCCAACGUUCUCAACUAUGACACGCAAAACGCGUGCUCCGUUGAAUGGAAUUUAUCAUG [C54U G143A]	-0.736
GGAUCUUCUCGAUCUAACAAAAAAGACAAAUCUGCCACAAAGCUUGAGAGCAUUUUCGGAUGCAGAGGCGGCAGCCUUCGGUGGCGCGAUAGCGCCAACGUUCUCAACUAUGACACGCAAAACGCGUGCUCCGUUAAAUGGAGUUUAUCAUG [C54U G136A]	0.306
GGAUCUUCUCGAUCUAACAAAAAAGACAAAUCUGCCACAAAGCUUGAGAGCAUUAUCGGAUGCAGAGGCGGCAGCCUUCGGUGGCGCGAUAGCGGAAACGUUCUCAACUAUGACACGCAAAACGCGUGCUCCGUUGAAUGGAGUUUAUCAUG [C54U U55A C95G C96A]	-3.07
